Biological target: SARS-CoV-2 Spike protein on pseudotyped virus (SARS-CoV-2, UniProt P0DTC2 14-1273)
Test: cell-based or functional assay

Binder | IC50, neutralization of SARS-CoV-2pp, DBT-ACE2 cells (further assays) [µg/mL] | IC50, neutralization of SARS-CoV-2pp, DBT-ACE2 cells [µg/mL]
SARS-CoV-2 S315 (antibody, V domains shown) VH: EVQLVESGGGLVQPGGSLRLSCAASGFTFSNYWMTWVRQAPGKGLEWVANIKQDGSEKYYVDSVKGRFTISRDNAKNSLYLQMNSLRAEDTAVYYCARDLWWNDQAHYYGMDVWGQGTTVTVSS VL: SYELTQPPSVSVSPGQTARITCSGDAFPNQYAYWYQQKPGQAPVMLIYKDSERPSGIPERFFGSSSGTTVTLTIRGVQAEDEADYYCQSADSSGTVFGGGTKLTVL | 25.1 | –
SARS-CoV-2 S304 (antibody, V domains shown) VH: EVQLVESGGGLVQPGGSLRLSCAASGFTFSSYDMHWVRQTTGKGLEWVSTIGTAGDTYYPDSVKGRFTISREDAKNSLYLQMNSLRAGDTAVYYCARGDSSGYYYYFDYWGQGTLLTVSS VL: DIQMTQSPSSLSAAVGDRVTITCRASQSIGSYLNWYQQKPGKAPKLLIYAASSLQSGVPSRFSGSGSGTDFTLTISSLQPEDFAIYYCQQSYVSPTYTFGPGTKVDIK | – | ~17

Source: patent publication US20240400652A1 (VIR BIOTECHNOLOGY, published 2024)
